# Reference: the DeepSol protein solubility set
# Experiment: soluble on expression in E. coli; label from the status in PepcDB or PDB records
row,Sequence,soluble on expression in E. coli
1,KGKKVILFAPTFRGSGHGTAHYPFFKIDFERLARYCEKNNAVVLFKMHPFVKNRLNIADKHKQYFVDVSDFREVNDILFITDLLISDYSSLIYEYAVFKKPMIFYAFDLEDYITTRDFYEPYESFVPGKIVQSFDALMDALDNEDYEGEKVIPFLDKHFKYQDGRSSERLVRNLFG,not soluble
2,MSHLVYVSRVVAAPIERVWPHLRDFNGLSAWHPGVADSRLEEGGRDDAPGTVRFLSLNPSGYVRERLLMLDDAGRSLRYAIIETDLPMRDYVAGVDLCPVTEGGGTFAQWWADFDVVAGANRDEVARLVGEGVFAAGLQALDQYLRGRQALEHHHHHH,not soluble
3,MANKGIVPVKISLTEGDFYTLWAPQWREHGAEWQAFLGSGDDLYVFESPAAVLAYIESGARHDLSDHPKWGAFMAGADDRVVPTDRQEYDLIGVPALLAERPSHTNVSAVARCFAITRSLGDVTATIPVQSFFSSHSILMNTERGGNHFTGDSGLGEWTGIGRIVLTSWNNVIDALDSAITVHTDGNAEAISAAAARIDAATAEAEQRRIAEEKKKKADAEKVDPYDATPWAAAGIDPIKISIDGRTVYTLRTYIEAQPVFLGKYGEIFTFNSGKSLVRWLVEHDDHDLARVSTWEDLMVPVNAGELDITVHPDNVYSFNGLTRDINTSVEAVDTAQMARAYELLADAADWAADDSLNSYFLTNPRMQDYISYMIGSTRVSGYTPTPPFTEHSESWAEMEKMLTKRFSKF,not soluble
4,MRNIAVILAGGSGQRLGENIPKQFLKIAGKKVIEHTITVFQNHSLIDEIVVVVHPDYIRDVEDISLRNSFNKLKKILLGGKERYHSSLAAINAYDEEVNLLFHDSVRPLVNERIINDCIRALLTYNAVDVAIPTTDTIIQVDDNNEIVKIPSRILLRNGQTPQAFKRSVIKAAYEKALLDPLFKTTDDCGVVLKYLPDESIYVVNGEQFNMKLTYKEDIFLLDKLFQLRSIRNQPTLLEKSEMEELQGKVVVVFGGTYGIGQDICEICREYKTSLYVYSRSTGVDVSNSQSVRRVLSEIFDKEGRIDWIVNTAGILDKQPLANMSYEAVHQSIDVNYLGNIIVAKESFFYLKESKGSLLFFTSSSYTRGRALYSLYSSSKAAIVNFVQALSEEWFEYGIRVNCINPERTKTPMRIQNFGNEPEDTLLEPKVVAIVSVNTLLSEMTGEVVDVKRLEHHHHHH,not soluble
5,MQRMNFSSLIETFAVDFQLVLPSVEGAGKYIHGEWFPTNEEPKTVSGAIIPYDNRTIYQSGGTLTSSDRQLAYVGSIPLGSKIIDMGKEYKVESEEPYAEHYADVNLYRLKAVTNNAAN,not soluble
6,MRGFLSGEFELSSVEDAEVVIINSCGVIDFTERKIIRRMLDLKREGKKVVLAGCLTRISKEALSVADSALSPDNLDMVVDAVYSALNGRKLFTERRFIDKAEFSHLKCRLRENAIAIVSISEGCLGKCSFCATKFARGRLRSFSMDAIVREAERAVRAGYREIQLTSQDTGAYGMDKGRAMLPELLRKISEIEGEFRVRVGMMNPQHAVRMLDELINAYSSEKIYKFLHIPVQSGDNRILEDMKRNHTVEDYVEVVEAFRNSFDDVLISTDIIVGFPTETEEAFWKSYELIKETRPDIVNITRYSARKGTPAARLRDIPGWIKKERSRKLTDLMRKIGLENNKRFVGKKLRVLVTKEGKNGRNLARMNSYRAVVTEGAVGEFVEVKIKDCRFNYLIGQLAAEQPQLEHHHHHH,not soluble
7,MSEITIGVLSLQGDFEPHINHFIKLQIPSLNIIQVRNVHDLGLCDGLVIPGGESTTVRRCCAYENDTLYNALVHFIHVLKKPIWGTCAGCILLSKNVENIKLYSNFGNKFSFGGLDITICRNFYGSQNDSFICSLNIISDSSAFKKDLTAACIRAPYIREILSDEVKVLATFSHESYGPNIIAAVEQNNCLGTVFHPELLPHTAFQQYFYEKVKNYKYSLEHHHHHH,soluble
8,MGSDKIHHHHHHMKLIDLHVHSYHSDGVLAPAVLVAMAAERGLASLAIADHDAVDGIDEAVAEGVRLGVDVIPAVELSVELGRFSDLHILGYCIDHHDPAFRDKLAGFRSARDNRGKAILEKINRRLLHSRKAPLSYDEVLSMAGGAVGRPHIGRVLVDNGYARDMEDAFRRYLIPCNVPKRYMPAGEAIAEIRRIGGVSVLAHPPTITDDRRRLRQVVEQLAQLGLDGLEVFNNLCFKDDMLYLERLAEEFGLLMTGGSDFHGFEDDVELGRGRGGLAVAHSLAEKVKELAAQRKHSHA,not soluble
9,IHDDPVEQRDADVAMEKSHRARNERKKNKNHTPSEHPAAAAMHEEKKKVSIEDLVAAVVIEDDPQPEPDVVPTPADDDVMDIVSAALDRAYEEDPDEPSGSDYLPLEEKPQTYAEAVEEFERSPRRKRKTRGNSVSDVPPRKADFEKPEPQPEPEVVVEKVSSRGRRRAVRRTVVEATPEVVAPTETVESSRGRRRAVRKKMAPQPVQTEAVVEDKHEVSAPSQGGRGRRRASRRAPRR,not soluble
10,MFQQLSARLQEAIGRLRGRGRITEEDLKATLREIRRALMDADVNLEVARDFVERVREEALGKQVLESLTPAEVILATVYEALKEALGGEARLPVLKDRNLWFLVGLQGSGKTTTAAKLALYYKGKGRRPLLVAADTQRPAAREQLRLLGEKVGVPVLEVMDGESPESIRRRVEEKARLEARDLILVDTAGRLQIDEPLMGELARLKEVLGPDEVLLVLDAMTGQEALSVARAFDEKVGVTGLVLTKLDGDARGGAALSARHVTGKPIYFAGVSEKPEGLEPFYPERLAGRILGMGDIESILEKVKGLEEYDKIQKKMEDVMEGKGKLTLRDVYAQIIALRKMGPLSKVLQHIPGLGIMLPTPSEDQLKIGEEKIRRWLAALNSMTYKELENPNIIDKSRMRRIAEGSGLEVEEVRELLEWYNNMNRLLKMVK,soluble
11,MGSDKIHHHHHHMSIRGKAFIVGAYEHPGRNLPDHSVQQIHAECAMGALSDAGLSIKDVDGYFSNGQLGFGGISMAEYLGLRLSYIDSTFTGGSSYMAHVGHAAAAIAAGKCKVALITQGAKVRGVIRGAKHTADTPEFPFETVYGETNAAIYALAARRHMHEYGTTAEQLAAVKVAAAAYAQHNPNALLRKLVSIDDVMNSPIIADPLHRLDCCVVTDGGGALVLVAPEIARSLKRQSVKLLGHAEAIRHGGDGPSDFASTAAALSGPRAFTEAGVSPRDVRYASIYDSFTITVIMTLEDLGFCGKGEGGAFVASGALGLDGLLPINTDGGGLCNNHPGYQGGMVRTIEAVRQLRGEANPNTQVKNCTIALAHGTGGGMSRHASVTLVLGQEDA,not soluble
12,MGSDKIHHHHHHMPVKLAQALANPLFPALDSALRSGRHIGLDELDNHAFLMDFQEYLEEFYARYNVELIRAPEGFFYLRPRSTTLIPRSVLSELDMMVGKILCYLYLSPERLANEGIFTQQELYDELLTLADEAKLLKLVNNRSTGSDVDRQKLQEKVRSSLNRLRRLGMVWFMGHDSSKFRITESVFRFGADVRAGDDPREAQRRLIRDGEAMPIENHLQLNDETEENQPDSGEEE,not soluble
13,MSELVVIREMQEKDILALDTQFVQQGWPSRQEILMNYLEEQLVKQRTVFVAEKKATLLGYVTLLPLAKEGPFKNLYPEIADFNVFLPFQKQGVGRLLLNRAENVAKSYADTVSLGVGLHPGYGAAQRLYIKQGYVPDGSGVWFQNKQLKPNERCVNDDELVLYLSKKL,not soluble
14,MSDRYRFTILGCGSSPGVPRPNGDWGACNPNNPKNKRYRSSLLVERIHKSGKKTTIVIDTGPDFRSQMIDACVNHLDAALYTHSHADHIHGIDDLRSYALAQKSLIDIYADSFTLRHLKNAFGYCFQTPKGSSYLPILKAHLINEDSQFIIQGQGGAIHVNTHLQLHGSIHSLGFRIGNVAYCTDVSQFPKKTLPKLMNLNVLIIEALQFKSHPSHLSVDQALQWIKYLQPKQAILTHMDRSLDYNEVINYLPPHVKPAYQGLIFEADA,not soluble
